Measurements as given in article PMC10945505 (2024).
Each block holds one binder with its values, some of them ahead of it.

Key:
Assay in all cases: BLI
FZD7 CRD = FZD7 CRD (Homo sapiens)
Human βKlotho = Human βKlotho (human, UniProt Q86Z14 1-996)
L-39F7 = target: L-39F7
L-αGFP = target: L-αGFP

Kd (FZD7 CRD): 92.3 nM | Kd (Human βKlotho): 10.1 nM
B1: F-FGF21FL (other)
chain: HPIPDSSPLLQFGGQVRQRYLYTDDAQQTEAHLEIREDGTVGGAADQSPESLLQLKALKPGVIQILGVKTSRFLCQRPDGALYGSLHFDPEACSFRERLLEDGYNVYQSEAHGLPLHLPGNKSPHRDPAPRGPARFLPLPGLPPALPEPPGILAPQPPDVGSSDPLSMVGGSQGRSPSYES

Kd (FZD7 CRD): 82.5 nM | Kd (Human βKlotho): 11.8 nM
B2: F-FGF21ΔN (other)
chain: QRYLYTDDAQQTEAHLEIREDGTVGGAADQSPESLLQLKALKPGVIQILGVKTSRFLCQRPDGALYGSLHFDPEACSFRERLLEDGYNVYQSEAHGLPLHLPGNKSPHRDPAPRGPARFLPLPGLPPALPEPPGILAPQPPDVGSSDPLSMVGGSQGRSPSYES

Kd (L-39F7): 6.4 nM | Kd (L-αGFP): 9.7 nM
B3: LRP6E3E4 (protein)
chain: EAFLLFSRRADIRRISLETNNNNVAIPLTGVKEASALDFDVTDNRIYWTDISLKTISRAFMNGSALEHVVEFGLDYPEGMAVDWLGKNLYWADTGTNRIEVSKLDGQHRQVLVWKDLDSPRALALDPAEGFMYWTEWGGKPKIDRAAMDGSERTTLVPNVGRANGLTIDYAKRRLYWTDLDTNLIESSNMLGLNREVIADDLPHPFGLTQYQDYIYWTDWSRRSIERANKTSGQNRTIIQGHLDYVMDILVFHSSRQSGWNECASSNGHCSHLCLAVPVGGFVCGCPAHYSLNADNRTCSAPTTFLLFSQKSAINRMVIDEQQSPDIILPIHSLRNVRAIDYDPLDKQLYWIDSRQNMIRKAQEDGSQGFTVVVSSVPSQNLEIQPYDLSIDIYSRYIYWTCEATNVINVTRLDGRSVGVVLKGEQDRPRAVVVNPEKGYMYFTNLQERSPKIERAALDGTEREVLFFSGLSKPIALALDSRLGKLFWADSDLRRIESSDLSGANRIVLEDSNILQPVGLTVFENWLYWIDKQQQMIEKIDMTGREGRTKVQARIAQLSDIHAVKELNLQEYRQHPCAQDNGGCSHICLVKGDGTTRCSCPMHLVLLQDELSCGEP
